We go through five molecules from patent US20220204643A1 (published 2022).

Test [1] addresses T1, butyrophilin subfamily 1 member A1 (human, UniProt Q13410 27-526).
T1 construct: HuProt array protein, full-length recombinant from yeast; also called BTN1A1
T1 sequence: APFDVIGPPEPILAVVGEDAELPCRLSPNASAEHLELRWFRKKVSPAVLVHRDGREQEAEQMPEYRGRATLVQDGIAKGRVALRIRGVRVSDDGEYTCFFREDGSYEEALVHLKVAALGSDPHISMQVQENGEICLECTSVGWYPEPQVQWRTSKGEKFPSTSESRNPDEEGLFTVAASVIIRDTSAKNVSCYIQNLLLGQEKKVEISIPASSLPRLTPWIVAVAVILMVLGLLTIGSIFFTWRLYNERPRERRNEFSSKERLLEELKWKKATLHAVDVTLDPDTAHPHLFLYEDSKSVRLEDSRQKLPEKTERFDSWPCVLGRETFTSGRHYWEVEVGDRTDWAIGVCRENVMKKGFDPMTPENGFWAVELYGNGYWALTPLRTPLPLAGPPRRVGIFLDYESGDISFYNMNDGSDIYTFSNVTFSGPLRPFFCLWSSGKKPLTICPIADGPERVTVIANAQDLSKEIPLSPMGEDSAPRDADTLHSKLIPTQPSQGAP

Test [2] addresses T2, SATB homeobox 2, transcript variant 2 (human, UniProt Q9UPW6 1-733).
T2 construct: HuProt array protein, full-length recombinant from yeast; also called SATB2
T2 sequence: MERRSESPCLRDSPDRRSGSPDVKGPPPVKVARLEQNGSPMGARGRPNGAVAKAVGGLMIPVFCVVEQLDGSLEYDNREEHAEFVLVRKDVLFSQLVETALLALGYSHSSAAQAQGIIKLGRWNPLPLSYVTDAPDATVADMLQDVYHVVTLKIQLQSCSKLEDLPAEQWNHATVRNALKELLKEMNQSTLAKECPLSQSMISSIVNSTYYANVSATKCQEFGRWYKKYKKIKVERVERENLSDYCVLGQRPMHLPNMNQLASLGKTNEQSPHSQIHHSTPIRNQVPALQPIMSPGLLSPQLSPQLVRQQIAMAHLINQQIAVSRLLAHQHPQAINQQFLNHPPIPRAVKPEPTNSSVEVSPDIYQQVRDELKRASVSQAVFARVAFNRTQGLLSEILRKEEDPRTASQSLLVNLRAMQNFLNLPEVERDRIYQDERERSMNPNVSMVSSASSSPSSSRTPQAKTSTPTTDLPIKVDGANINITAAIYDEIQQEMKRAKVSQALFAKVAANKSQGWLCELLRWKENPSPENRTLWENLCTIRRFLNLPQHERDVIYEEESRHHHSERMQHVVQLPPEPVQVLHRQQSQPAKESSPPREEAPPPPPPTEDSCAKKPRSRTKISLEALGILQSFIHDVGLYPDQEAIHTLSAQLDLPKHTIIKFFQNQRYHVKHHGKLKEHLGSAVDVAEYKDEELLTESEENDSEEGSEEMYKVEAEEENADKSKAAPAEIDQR

The target of test [3] is T3, ganglioside induced differentiation associated protein 1, transcript variant 2 (human, UniProt Q8TB36 69-358).
T3 construct: HuProt array protein, full-length recombinant from yeast; also called GDAP1
T3 sequence: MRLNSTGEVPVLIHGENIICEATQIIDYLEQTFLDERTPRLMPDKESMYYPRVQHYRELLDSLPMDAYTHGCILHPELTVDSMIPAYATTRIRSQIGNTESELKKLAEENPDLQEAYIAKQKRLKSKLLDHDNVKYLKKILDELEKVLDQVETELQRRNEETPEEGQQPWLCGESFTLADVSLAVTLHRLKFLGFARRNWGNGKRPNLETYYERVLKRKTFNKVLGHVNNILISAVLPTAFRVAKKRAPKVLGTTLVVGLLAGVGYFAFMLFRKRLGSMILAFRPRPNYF

The target of test [4] is T4, zinc finger protein 8 (human, UniProt P17098 1-575).
T4 construct: HuProt array protein, full-length recombinant from yeast; also called ZNF8
T4 sequence (P17098 whole entry): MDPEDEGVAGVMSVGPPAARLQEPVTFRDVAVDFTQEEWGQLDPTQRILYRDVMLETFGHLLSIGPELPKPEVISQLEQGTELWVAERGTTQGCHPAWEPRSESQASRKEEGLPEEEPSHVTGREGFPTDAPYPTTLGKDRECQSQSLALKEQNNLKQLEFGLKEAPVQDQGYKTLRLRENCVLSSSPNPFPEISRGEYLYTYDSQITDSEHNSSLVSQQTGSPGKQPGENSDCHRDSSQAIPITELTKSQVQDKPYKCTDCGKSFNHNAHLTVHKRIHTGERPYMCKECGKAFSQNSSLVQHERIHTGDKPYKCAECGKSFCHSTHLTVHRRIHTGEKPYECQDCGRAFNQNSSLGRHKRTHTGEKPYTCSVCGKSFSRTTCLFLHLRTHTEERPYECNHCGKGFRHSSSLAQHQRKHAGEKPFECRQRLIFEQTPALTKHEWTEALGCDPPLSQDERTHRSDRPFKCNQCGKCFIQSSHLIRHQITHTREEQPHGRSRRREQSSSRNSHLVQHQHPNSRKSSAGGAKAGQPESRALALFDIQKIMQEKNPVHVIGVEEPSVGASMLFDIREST

The target in test [5] is T5, FA complementation group G (human, UniProt O15287 1-622).
T5 construct: HuProt array protein, full-length recombinant from yeast; also called FANCG
T5 sequence: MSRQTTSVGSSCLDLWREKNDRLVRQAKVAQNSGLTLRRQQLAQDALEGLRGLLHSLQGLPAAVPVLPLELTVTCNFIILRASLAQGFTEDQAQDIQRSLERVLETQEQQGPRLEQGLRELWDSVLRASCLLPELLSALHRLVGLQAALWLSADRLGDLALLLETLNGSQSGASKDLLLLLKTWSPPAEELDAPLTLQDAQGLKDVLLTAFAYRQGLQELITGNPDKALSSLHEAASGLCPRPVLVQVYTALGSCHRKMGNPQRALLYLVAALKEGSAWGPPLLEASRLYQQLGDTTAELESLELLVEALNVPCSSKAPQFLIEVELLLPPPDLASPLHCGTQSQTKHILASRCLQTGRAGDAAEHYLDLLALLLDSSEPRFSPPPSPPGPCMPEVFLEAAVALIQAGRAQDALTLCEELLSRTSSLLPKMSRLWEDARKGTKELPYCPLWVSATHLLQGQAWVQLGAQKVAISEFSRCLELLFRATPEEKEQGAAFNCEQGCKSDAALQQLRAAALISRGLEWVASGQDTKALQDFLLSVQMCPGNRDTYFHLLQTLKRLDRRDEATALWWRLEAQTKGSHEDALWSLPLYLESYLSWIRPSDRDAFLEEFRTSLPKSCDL

In test [6] the target is T6, kelch like family member 40 (human, UniProt Q2TBA0 1-621).
T6 construct: HuProt array protein, full-length recombinant from yeast; also called KLHL40
T6 sequence: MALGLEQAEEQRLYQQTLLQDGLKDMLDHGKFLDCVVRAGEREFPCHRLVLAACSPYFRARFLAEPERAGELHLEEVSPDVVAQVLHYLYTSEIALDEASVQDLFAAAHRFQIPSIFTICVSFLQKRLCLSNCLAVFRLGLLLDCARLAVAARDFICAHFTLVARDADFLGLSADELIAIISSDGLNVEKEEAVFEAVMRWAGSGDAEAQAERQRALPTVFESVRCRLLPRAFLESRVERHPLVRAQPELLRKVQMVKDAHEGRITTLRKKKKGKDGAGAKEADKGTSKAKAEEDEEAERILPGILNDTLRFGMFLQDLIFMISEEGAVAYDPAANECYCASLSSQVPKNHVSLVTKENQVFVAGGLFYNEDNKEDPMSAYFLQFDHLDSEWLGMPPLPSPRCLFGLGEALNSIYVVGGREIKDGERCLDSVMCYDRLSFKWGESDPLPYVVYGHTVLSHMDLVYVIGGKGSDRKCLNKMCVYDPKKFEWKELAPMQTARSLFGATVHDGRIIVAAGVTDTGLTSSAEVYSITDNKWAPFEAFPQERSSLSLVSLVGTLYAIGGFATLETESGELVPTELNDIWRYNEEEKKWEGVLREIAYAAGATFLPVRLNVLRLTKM

In test [7] the target is T7, membrane palmitoylated protein 2, transcript variant 3 (human, UniProt Q14168 1-576).
T7 construct: HuProt array protein, full-length recombinant from yeast; also called MPP2
T7 sequence: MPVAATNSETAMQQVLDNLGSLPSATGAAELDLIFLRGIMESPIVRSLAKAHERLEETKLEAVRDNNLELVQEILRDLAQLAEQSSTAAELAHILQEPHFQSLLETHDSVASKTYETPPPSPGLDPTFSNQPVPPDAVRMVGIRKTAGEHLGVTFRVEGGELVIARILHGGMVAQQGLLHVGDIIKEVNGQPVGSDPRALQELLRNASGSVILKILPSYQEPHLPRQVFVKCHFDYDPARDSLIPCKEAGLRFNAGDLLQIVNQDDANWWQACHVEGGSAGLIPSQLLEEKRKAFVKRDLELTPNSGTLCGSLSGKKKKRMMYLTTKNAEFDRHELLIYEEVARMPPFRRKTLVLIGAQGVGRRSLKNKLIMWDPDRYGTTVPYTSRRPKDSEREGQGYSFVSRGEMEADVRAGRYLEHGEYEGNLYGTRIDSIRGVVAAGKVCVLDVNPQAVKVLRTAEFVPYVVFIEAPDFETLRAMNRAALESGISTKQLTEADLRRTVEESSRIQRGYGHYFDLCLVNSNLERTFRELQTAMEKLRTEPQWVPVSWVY

Test [8] has as its target T8, zinc finger with KRAB and SCAN domains 4, transcript variant X1 (human, UniProt Q969J2 1-545).
T8 construct: HuProt array protein, full-length recombinant from yeast; also called ZKSCAN4
T8 sequence: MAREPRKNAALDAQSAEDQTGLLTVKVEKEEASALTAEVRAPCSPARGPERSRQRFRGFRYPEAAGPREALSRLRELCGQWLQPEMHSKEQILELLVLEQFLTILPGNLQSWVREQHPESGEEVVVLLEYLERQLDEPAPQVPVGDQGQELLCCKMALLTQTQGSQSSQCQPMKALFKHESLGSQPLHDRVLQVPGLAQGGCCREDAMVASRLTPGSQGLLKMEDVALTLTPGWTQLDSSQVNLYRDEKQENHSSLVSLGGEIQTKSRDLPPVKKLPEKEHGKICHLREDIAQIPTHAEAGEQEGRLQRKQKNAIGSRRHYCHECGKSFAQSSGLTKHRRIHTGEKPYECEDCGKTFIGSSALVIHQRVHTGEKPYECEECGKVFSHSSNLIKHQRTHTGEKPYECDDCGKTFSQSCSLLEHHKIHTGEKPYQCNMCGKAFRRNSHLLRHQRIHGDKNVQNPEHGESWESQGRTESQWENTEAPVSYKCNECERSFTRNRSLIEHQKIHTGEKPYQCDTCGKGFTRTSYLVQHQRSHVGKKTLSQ

B1: TBRE1013 (antibody, V domains shown)
VH: EVQLVESGGGLVKPGGSLRLSCAGSGFSFSSYSMNWVRQAPGKGLEWVSSISSKSSSKNYIDSVKNRFIISRDNAKNSLYLQMNSLRAEDTAVYYCARDLELIIAAGAPLDHWGQGTLVTVSS
VL: DIQMTQSPSSLSASVGDRVTITCRASQSIKNYVNWYQQKPGEAPNLLIFAASNLQSGVPSRFTGSGSGTDFSLTISSLQPEDFAAYYCQQTYSHPRTFGQGTRVEIKR
notes: detected with anti-human IgG Fc
Turning to B1, the binding result in test [1] was “binds”.

B2: TBRE1017 (antibody, V domains shown)
VH: QVQLVQSGAEVKKPGASVKVSCKASGYNFRDYYMHWVRQAPGQGLEWMGWINPNSGGTISAQNFQGRVTMTRDTSISTAYMEVNSLRSDDTAVYYCAVGMVTDGFEIWGQGTLVTVSS
VL: PYELTQPPSVSVSPGQTARITCSGDALPNENAFWYQQKPGQAPVLVIYEDIKRPSGIPERFSGSSSGTTVTLTISGVQAEDEADYYCQSVDITSTWVFGGGTKLTVLG
notes: as for B1
For the molecule B2, the binding result in test [2], in test [3] and in test [4] was “binds” each time.

B3: TBRE1024 (antibody, V domains shown)
VH: PVQLQESGPGLVKPSETLSLTCTVSGGSISSDNYYWSWLRQHPGKGLEWIGYIYFSVTTYYNPSLKSRVTISLDTSKNQFSLKLSSVTAADTAVYYCASGYVSFDLWGQGTLVTVSS
VL: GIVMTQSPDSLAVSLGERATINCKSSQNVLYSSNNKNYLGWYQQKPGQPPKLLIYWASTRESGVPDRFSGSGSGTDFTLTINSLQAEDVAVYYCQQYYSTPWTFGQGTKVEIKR
notes: as for B1
With B3, the binding result in test [5] is recorded as “binds”.

B4: TBRE1012 (antibody, V domains shown)
VH: QVQLQESGPGLVKPTQTLSLTCTVSGGSISSGSYYWNWIRQPAGKGLEWIGNIYTSGNTDYNPSLKSRVTISLDTSKNQVSLNLTSVTAADTAVYYCATTPSSSWYWYFDPWGQGTLVTVSS
VL: DLQMTQSPSSLSASIGDRVTITCRASQSISTYFNWYQQKPGKAPKLLIYAASSLQSGVPSRFSGSGSGTDFTLTITSLQPEDFATYYCQQTYSNPWTFGQGTKVDFKR
notes: as for B1
As for B4, the binding result in test [6] and in test [7] was “binds” throughout.

B5: TBRE1009 (antibody, V domains shown)
VH: EVQLVESGGGLVKPGGSLRLSCVGSGFTFSNYSMNWVRQAPGRGLEWVSSISWGSSYINYADSVKGRFTISRDNAKNSLYLQMTSLTAEDTAVYYCACRRIYQGFDPWGQGTLVT
VL: DIQMTQSPSSLSASVGDRVTISCRASHNINTYLNWYQHKPGKAPKIVIYGASSLQSGVPSRFSGSGSGTDFSLTISSLQREDFATYFCQQSFNTVLTFGGGTRVDI
notes: as for B1
B5: the binding result in test [8] is reported as “binds”.
